assay: yeast display, Sf9 membrane polyspecificity reagent, FACS + sequencing; frameworks hold sequencing errors
Summary of the method: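 In a synthetic yeast display library (Saccharomyces cerevisiae BJ5465), nanobody expression was induced with galactose for 36–48 hours. FACS gates were set low and high (top ~1%) using anti-HA fluorescence for expression and streptavidin fluorescence for binding of the Sf9 membrane reagent. Each polyreactivity label is drawn from the gate of origin.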

Row | Sequence | polyreactivity (PSR sort gate)
1 | QVQLVESGGGLVQAGGSLRLSCAASGGIFPAYAMGWYRQSPGKERELVASISANGGRTYYADSVKGRFTISRDNAKNSVYLQLNSLKPEDTAVYYCNASYRSGSWRFYYWGQGTQVTVSS | high polyreactivity
2 | QVQLQESGGGLVQAGGSLCLSCAASGTIIFDGDMGWYRQAPGKEREFVAAINPGGSAYYADSVKGRLPLAAITHTVYLQMNCLKPEDTAVYYCAAKLFDVYGYYYWGQGTHVTVSS | low polyreactivity
3 | QVQLVESGGGLVQAGGSLRLSCAASGRTFGQNAMGWYRQAPGKERELVASIRSGGITDYADSVKGRFTISRDNAKNTVYLQMNSLKPDDTAVYYCNAEGVWWSTRYDSWGQGTQVTVSS | low polyreactivity
4 | QVQLVESGGGLVQAGGSLRLSCAASGRTLTGNAMGWYRQAPGKERELVAAITARGGSTYYADSVKGRFTISRDIAKNTVYLQMNSLKPEDSAVYYCATLPVRIRRDYWGQGTQVTVSS | high polyreactivity
5 | QVQLVESGGGLVQAGGSLRLSCAASGRTFLINSMGWYRQAPGKERELVAGITRNGGTTYYADSVKGRFTISRDNAKNTVYLQMNSLKPEDTAVYYCAKRYPSWFNYWGQGTQVTVSS | high polyreactivity
6 | QVQLVESGGGLVQAGGSLRLSCAASGSIFKKYAMGWYRQAPGKERELVAAITRGTYYADSVKGRFTISRDNAKNTVYLQMNSLKPEDTAVYYCNREYWGRGYYRVRGEYDYWGQGTQVTVSS | low polyreactivity
7 | QVQLVESGGGLVQAGGSLRLSCAASGFTFGKYARGWYRQAPGKERELVAAISRSGGSTYYADSVKGRFTISRDNAKNTVYLQMNSLKPEDTAVYYCAAYHPIQEYDYWGQGTQVTVSS | high polyreactivity
8 | QVQLVESGGGLVQAGGSLRLSCAASGSTFAYYAMGWYSPAPGKERELVAAISSSGGRTYYADSVKGRFTISRDNAKNTVYLQMYSLKPEDTAVYYCAARSPYYSASVRYDYWGQGTQVTVSS | high polyreactivity
9 | QVQLVESGGGLVQAGGSLRLSCAASGIIFVWNAMGWYRQAPGKERALVAAITNGGSTYYADSVKGRFTISRDNAKTTVYLQMTSLKPEETAVDYCHVRYFFRFRDDYWGQGTQVTVSS | low polyreactivity
10 | QVQLVESGGGLVQAGGSLRLSCAASGSTFKTYVMGWYRQAPGKERELVAGISDSGGTTYYADSVKGRFTISRDNAKNTVYLQMNSLKPEDTAGYYCAAVLYRRYTRARLDYWGQGTQVTVSS | high polyreactivity
11 | QVQLVESGGGLVQAGGSLRLSCAASGRTFGQNALGWYRQAPGKERELVASIRSGGITDYADSVKGRFTISRDNAKNTVYLQMNSLKPEDTAVYYCNAEGVWWSTRYDSWGQGTQVTVSS | low polyreactivity
12 | QVQVVESGGGLVQAGGSLRLSCAASGSTFTIYAMGWYRQAPGKERELVALITWSGGSTYYADSVKGRFTISRDNAKNTVYLQMNSLKPEDTAVYYCAADYYRPVPGGYYWGQGTQVTVSS | high polyreactivity
13 | QVQLVESGGGLVQAGGSLRLSCAASGSIFYVYVMGWYRPAPGKERELVAGITSGGSTYYADSVKGRFTISRDNAKNTVYFQMNSLKPEDTAVYFCAADLYYWGDYDYWGQGSQVTVSS | low polyreactivity
14 | QVQLVESGGGLVQAGGSLRLSCAASGSIFYRNAMGWYRQAPGKERELVAGITWRGGRTYYADSVKGRFTISRDNAKNTVYLQMNSLKPEDTAVYYCAATYYWYGHPSRRYDYWGQGTQVTVSS | high polyreactivity
15 | QVQIVESGGGLVQAGGSLRLSCAASGSTFVDYDMGWYRQAPGKERELVAGITTGGSTNYADSVKGRFTISRDNAKNTVYLQMNRLKPEDTAVYYCAATVYGIYYYGRDRYDYWGQATQVTVSS | low polyreactivity
16 | QVQLVESGVGLVQAGGSLRISCAASGFIFDWNAMGWYRQAPGKERELVAAISSGGSTHYADSVKGRFTISRDNAKNTVYLQMNSLKPEDTAVYYCAARFPQWRYSRRTGERFDYWGQGTQVTVSS | low polyreactivity
17 | QVQLVESGGGLVQAGGSLRLSCAASGRTFGGNAMGWYRQAPGKERELVAAISSGGSTNYADSVKGRFTISRDNANNTVYLQMNSLKPEDTAVYYCAARGPYWGQGTQVTVSS | low polyreactivity
18 | QVQLVESGGRLVQAGGSLRLSCAASGRTFFGYAMGWYRQAPGKEWELVAAISSGGRTYYADSVKGRFTISRDNAQNTVYLQMNSLKPEDTAVYSCAAQYSARYYYWGQGTQVTVSS | high polyreactivity
19 | QVQLVESGGGIVQAGGSLRLSCAASGSTIGYYAMGWSRQAPGKERELVAAISRRGGSTYYADSVKGRFTISRDNAKNTVYLQMTSLKPEDTAVYYCAADRRIGDGENYYWGQGTQVTVSS | high polyreactivity
20 | QVQLVESGGGLVQAGGSLRLSCAASGSIFAANAMGWYRQAPGKERELVAAITSGGSTDYADSVKGRFTISRDNAKNTVYLEMNSLKPEDTAVYYCAKGYVPYAIFDYWGQGTQVTVSS | low polyreactivity
21 | QVQLVESGGGLVQAGGSLRLSCAASGYTSRSNAMGWYRQAPGKERELVAAIRGGGNTKYADSVKWRFTISRDNANNTVYLQMNSLKPEDTAVYYCAVVTGSFRTRYTYYYWGQGTQVTVSS | high polyreactivity
22 | QVQLVESGGGLVQAGGSLRLSCAASGSTFNGYTMGWYRQAPGKEREFVATITFSDGSTYYADSVKGRFTISRDNAKNTVYLQMNSLKPEDTAVYYCNVDSPIGYDYWGQGTQVTVSS | low polyreactivity

Row | Sequence | polyreactivity (PSR sort gate)
23 | QFQLVESGGCLVQAGGSLRLSCAASGFTFGYNAMGWYRQAPGKERELVAVITQSGGRTYYADSVKGRFTISRDNAKYTVYVQMNSLKPEDTAVYYCADRYRLPPYYYWGQGSQVTVSS | high polyreactivity
24 | QVQLVESGGGLVQAGGSLRLSRAASGITFGFKAMGWYRQAPGKERELVAAITWSVGRTYYADSVKGRFTISRDNAKNTVYLQMNSLKPEDTAVYYCAKDFEAGDDYFAYDYWGQGTQVTVSS | low polyreactivity
25 | QVQLVESGGGLVQAGGSLRLSCAASGRTFVYYAMGWYRQAPGKERELVAAIRSGGSTNYADSVKGLFSISRDTAKNTVSLQMNSLKPEDTSVYYCNAVHYYYYKGDYWGQGTQVTVSS | high polyreactivity
26 | QVQLVESGGGLVQAGGSLRLSCAASGRIFVFNDMGWYRQAPGKERELVAAISSGGNTYYADSVKGRFTISRDNAKNTVYLQMNSLKPEDTAVYYCAKVSRWSYKGSPYDYWGQGTQVTVSS | high polyreactivity
27 | QVQLVESGGGLVQAGGSLRLSCAASGGIFDSYAMGWYRQAPGKERELVAAISWSGDRTYYADSVKGRFTISRDNAKNTVYLQMISLKPEDTAVYYCAADDGYTYGEGYYWGQGTQVTVSS | high polyreactivity
28 | QVQLVESGGGLVQAGGSLRLSCAASGSIFVPYAMGWYRQAPWKERELVAAISRGGDTNYADSVKGRFTISRDKAKNTVYLQMNSLIPEDTAVSYCNRARHQYSRWHGGYYYWGQCTQVTVSS | low polyreactivity
29 | QVQLVESGGGLVQAGGSLRLSCAASGSIFEFNTMGWYRQAPGKERELVAAISSSGGRTYYADSVKGRFTISRDNAKNSVYLQMNSLKPEDTAVYYCNARRFVHNPDYDYWGQGTQVTVSS | high polyreactivity
30 | QVQLVESGGGLVQAGGSLRLSCAASGYNFVKNAMGWYRQAPGKERELVAAISTRGGRTYYADSVKGRFTISRDNAKNTVYLQMNSLKPEDTAVYYCAAVHQTSYYDANSYGYWGQGTQVTVSS | high polyreactivity
31 | QVQIVESGGGLVQAGGSLRLSCAASGYIFYPYTMGWYRQAPVKERQLVAAITWSGSTYYADSVKGRFTISRDNAKNTVYLQMNSLKPEDTAVYYCARESDWWREFPYDYWGHGTQVTVSS | low polyreactivity
32 | QVHLEESGRGLLQAGGSLRLSCDASGSTQNLYVMGWYRQAPGKESELVAAITSRGGRTYYADSVKGRFTISRDNAKNTVYLHMNSLKPEDTAVYYCAATKKTGYYRYYYWGQGTQVTVSS | high polyreactivity
33 | QVQLVESGGGLVQAGGSLRLSCAASGSIFLTYAMGWYRKAPGKERELVAAISGGGNTYYADSVKGRFTISRDNAKNTVYLQKNSLKPEDTAVYYCNAVPHIYAEGTAYNYWGQGTQVTVSS | low polyreactivity
34 | QVQLVESGGGLVQAGGSLRFSCAASGFTFVINDMGWYRQAPGKERELVADITSGGDTYYADSVKGRFTISRDNAKNTVYLQMNSLKPEDTAVYYCAADIYPDWIYLLYGYWGQGTQVTVSS | low polyreactivity
35 | QGQLVASGGGLVQAGGSLRLSSAASGSIFWLSTMGWSRQGPGKEREWVAAITGSGSATYYADSVKGRFTISRDYAKNTVYLQMTTLKPEDTADYYCAAYWSSARRRYDYWGQGSQVTVSS | high polyreactivity
36 | QVQLVESGGGLVQAGGSLRLSCAASGYTFYRNAMGWYRQAPGKERELVAAIRDDGSTYYADSVKGRFTISRDNAKNTVYLQMNSLKPEDTAVYYCAAAIPRQYWFGISHRRYYYWGQGTQVTVSS | low polyreactivity
37 | QFQRVDSGGGLVQAGGSLRLSCAASGSTLAVNAMGWYRQAHGKERELVAAITRSGGRTYYADSLKWRFTISRDNAKNTVYLQMNSLKPEDTAVYYFGAKWYYPFIPKRTTRYGFDYWGHGTQVTVSS | high polyreactivity
38 | QVQLLESGGGLVQAGGSLRLTSPASVRISQIYAMGWYIQAPGTERVLVARITSTDSTYYADSVKGRFTISRDNAKNTVYLQMNSLKPEDTAVYYCAASWWSPYDYWGQGTQVTVSS | low polyreactivity
39 | QVQLEESGGGLVQAGGSLRLSCAASGLIFQVYALGWYRQAPGKERELVASISWNGGSTYYADSVKGRFTISRDNAKNTVYLQMNSLKPEDTAVYYCNKYPVSLWYYSKDYTYDYWGQGTQVTVSS | low polyreactivity
40 | QVQLVESGGGLVQAGGSLRLSCAASGFIFAYYTMGWYRQAPGKEREFVASITYSGGNTYYADSVKGRFTISRDNAKNTVYLQMNSLKPEDTAVYYCATRDGYSISTTGLMDYWGQGTQVTVSS | low polyreactivity
41 | QVQLVESGGGLVQAGGSLRLSCAASGYIFEYYAMGWYRQAPGKERELVAAISWSGGSTYYADSVKGRFTISRDNAKNTVYFQLNSLKPVDTAVYYCAAEYVTYQQGLWGYDYWGQGTQVTVSS | low polyreactivity
42 | QVQLVESGGGLVQAGGSLRLSCAASGRTFWYYAMGWYRQAPGKEREFVAAISWSGGSTYYADSVKGRFTISRDNAKNTVYLQMNTLKPEDSAVYYCAASPVWWYDYWGQGTQVTVSS | low polyreactivity
43 | QAQLVESGGGLVQSGGSLRLSCAASGSIFRPYAMGWYRQAPGKERELVAAISSSGGGTYYADSVKGRFTISRDNAKNTVYLQMNILKPEDTSVYLYGSWGQGTQVNVSS | low polyreactivity

Reference: the nanobody polyreactivity screen of Harvey et al. (2022)
